Results as given in patent US20250026849A1 (ARCELLX, published 2025).
Residue numbers refer to the chain shown, from its start. Blank lines part the entries; values can stand above or below the binder they belong to.

Molecular target: T1, P26 (human, UniProt P02771 381-609, limits assumed)
T1 construct: also called AFP p26
T1 sequence: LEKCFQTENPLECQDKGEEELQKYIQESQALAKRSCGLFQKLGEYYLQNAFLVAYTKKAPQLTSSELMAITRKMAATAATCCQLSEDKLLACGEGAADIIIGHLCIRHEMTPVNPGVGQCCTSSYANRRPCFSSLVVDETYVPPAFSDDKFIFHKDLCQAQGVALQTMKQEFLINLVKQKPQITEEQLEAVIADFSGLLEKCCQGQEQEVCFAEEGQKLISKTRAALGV
Experiment: ELISA, format not described
Design: unit not given here

- ELISA_avg: 19.4
B1: D domain SEQ ID NO: 953 (designed binder)
chain: MGSWYIFKQELASIKLSLEALGGSEAELAHFEAEIAWFEWWLQWYKGKGNPEVEALRKEAAAIRDELQAYRHN

- ELISA_avg: 18.1
B2: D domain SEQ ID NO: 937 (designed binder)
chain: MGSWEHFKVELAGIKAYLEALGGSEAELALFEWAIADFESILQDYKGKGNPEVEALRKEAAAIRDELQAYRHN

- ELISA_avg: 15.9
B3: D domain SEQ ID NO: 938 (designed binder)
chain: B2 chain with E5I, H6Y, V9D, A16K, L30M, W33V, S40A, D44K

- ELISA_avg: 20.1
B4: D domain SEQ ID NO: 955 (designed binder)
chain: MGSWYLFKTELAAIKYRLEALGGSEAELASFEYEIAWFEHILQFYKGKGNPEVEALRKEAAAIRDELQAYRHN

- ELISA_avg: 18.6
B5: D domain SEQ ID NO: 957 (designed binder)
chain: MGSWWVFKKTLAEIKWTLEALGGSEAELAYFEAEIAFFEFILQQYKGKGNPEVEALRKEAAAIRDELQAYRHN

- ELISA_avg: 23.4
B6: D domain SEQ ID NO: 945 (designed binder)
chain: MGSWKLFKYELAWIKWRLEALGGSEAELADFEASIAQFEKYLQTYKGKGNPEVEALRKEAAAIRDELQAYRHN

- ELISA_avg: 31.1
B7: D domain SEQ ID NO: 946 (designed binder)
chain: B6 chain with K5Y, Y9N, A33M, S34V, Q37M, K40D, Y41H, T44E

- ELISA_avg: 30.1
B8: D domain SEQ ID NO: 951 (designed binder)
chain: MGSWYFFKSRLAYIKVYLEALGGSEAELAGFEWEIAHFEEWLQRYKGKGNPEVEALRKEAAAIRDELQAYRHN

- ELISA_avg: 29.6
B9: D domain SEQ ID NO: 952 (designed binder)
chain: B8 chain with F6I, R10E, Y13W, V16W, G30N, W33V, H37T, E40T, R44G

- ELISA_avg: 13.3
B10: D domain SEQ ID NO: 930 (designed binder)
chain: MGSWLYFKYNLAVIKHWLEALGGSEAELAIFEMSIADFEYELQWYKGKGNPEVEALRKEAAAIRDELQAYRHN

- ELISA_avg: 13.7
B11: D domain SEQ ID NO: 931 (designed binder)
chain: MGSWFYFKYELAWIKHWLEALGGSEAELASFETHIAFFEHQLQYYKGKGNPEVEALRKEAAAIRDELQAYRHN

- ELISA_avg: 29.5
B12: D domain SEQ ID NO: 939 (designed binder)
chain: MGSWVLFKQELAWIKWLLEALGGSEAELAAFEEQIARFEHDLQKYKGKGNPEVEALRKEAAAIRDELQAYRHN

- ELISA_avg: 33.3
B13: D domain SEQ ID NO: 943 (designed binder)
chain: B6 chain with K5L, Y9S, E10D, D30E, A33E, Q37M, K40H, Y41W, T44E

- ELISA_avg: 25.7
B14: D domain SEQ ID NO: 942 (designed binder)
chain: B6 chain with K5L, Y9S, R17Y, D30E, A33W, S34N, Q37E, Y41N, T44K

- ELISA_avg: 25.8
B15: D domain SEQ ID NO: 941 (designed binder)
chain: B6 chain with K5F, Y9S, D30Y, A33Y, S34Q, Q37E, K40F, Y41W, T44S

- ELISA_avg: 21.2
B16: D domain SEQ ID NO: 944 (designed binder)
chain: MGSWLYFKSDLAWIKWRLEALGGSEAELADFEEAIAEFEQALQIYKGKGNPEVEALRKEAAAIRDELQAYRHN

- ELISA_avg: 22.5
B17: D domain SEQ ID NO: 940 (designed binder)
chain: B12 chain with L17Y, E33W, Q34E, R37A, H40Q, D41R, K44I

- ELISA_avg: 17.8
B18: D domain SEQ ID NO: 979 (designed binder)
chain: MGSWMVFKQDLAEIKANLEALGGSEAELADFEFAIAWFEYELQWYKGKGNPEVEALRKEAAAIRDELQAYRHN

- ELISA_avg: 31.5
B19: D domain SEQ ID NO: 932 (designed binder)
chain: MGSWADFKWTLAYIKHRLEALGGSEAELAFFEMEIAYFEQSLQNYKGKGNPEVEALRKEAAAIRDELQAYRHN

- ELISA_avg: 20.5
B20: D domain SEQ ID NO: 954 (designed binder)
chain: MGSWVRFKTELAYIKESLEALGGSEAELAMFESEIAIFEHSLQTYKGKGNPEVEALRKEAAAIRDELQAYRHN

- ELISA_avg: 20.8
B21: D domain SEQ ID NO: 947 (designed binder)
chain: MGSWVYFKAHLAFIKWELEALGGSEAELANFESTIAEFEKYLQVYKGKGNPEVEALRKEAAAIRDELQAYRHN

- ELISA_avg: 19.6
B22: D domain SEQ ID NO: 936 (designed binder)
chain: MGSWSLFKHRLANIKVYLEALGGSEAELADFETFIAYFEKDLQEYKGKGNPEVEALRKEAAAIRDELQAYRHN

- ELISA_avg: 17.9
B23: D domain SEQ ID NO: 978 (designed binder)
chain: MGSWIHFKNDLAVIKDELEALGGSEAELARFEIMIAWFEDALQWYKGKGNPEVEALRKEAAAIRDELQAYRHN

- ELISA_avg: 12.1
B24: D domain SEQ ID NO: 949 (designed binder)
chain: MGSWTLFKWDLAFIKWQLEALGGSEAELAWFEYEIAAFEDSLQNYKGKGNPEVEALRKEAAAIRDELQAYRHN

- ELISA_avg: 23.3
B25: D domain SEQ ID NO: 950 (designed binder)
chain: B24 chain with T5I, W9E, Y33T, E34T, A37N, D40S, S41D, N44K

- ELISA_avg: 11.4
B26: D domain SEQ ID NO: 933 (designed binder)
chain: MGSWAYFKGQLAYIKSGLEALGGSEAELAYFELRIAYFEHWLQNYKGKGNPEVEALRKEAAAIRDELQAYRHN

- ELISA_avg: 19.8
B27: D domain SEQ ID NO: 948 (designed binder)
chain: MGSWMYFKSHLAWIKWELEALGGSEAELAFFEDNIAQFEYWLQLYKGKGNPEVEALRKEAAAIRDELQAYRHN

- ELISA_avg: 21.5
B28: D domain SEQ ID NO: 956 (designed binder)
chain: MGSWYWFKYELAEIKWHLEALGGSEAELAHFEHSIAVFESQLQQYKGKGNPEVEALRKEAAAIRDELQAYRHN

- ELISA_avg: 13.8
B29: D domain SEQ ID NO: 935 (designed binder)
chain: MGSWVLFKDYLADIKHYLEALGGSEAELANFEHLIANFEGDLQTYKGKGNPEVEALRKEAAAIRDELQAYRHN

- ELISA_avg: 19.2
B30: D domain SEQ ID NO: 934 (designed binder)
chain: MGSWENFKDTLAWIKEYLEALGGSEAELAGFEHRIAIFEHYLQYYKGKGNPEVEALRKEAAAIRDELQAYRHN

- ELISA_avg: 29.9
B31: D domain SEQ ID NO: 977 (designed binder)
chain: MGSWIAFKDHLAIIKQRLEALGGSEAELARFEFEIAWFEWMLQYYKGKGNPEVEALRKEAAAIRDELQAYRHN

- ELISA_avg: 30.4
B32: D domain SEQ ID NO: 965 (designed binder)
chain: MGSWTHFKEDLAHIKDRLEALGGSEAELAAFELDIAWFEFMLQYYKGKGNPEVEALRKEAAAIRDELQAYRHN

- ELISA_avg: 16.7
B33: D domain SEQ ID NO: 960 (designed binder)
chain: B32 chain with T5I, H6I, E9T, H13R, D16N, R17Y, A30T, L33R, Y44I

- ELISA_avg: 30.8
B34: D domain SEQ ID NO: 968 (designed binder)
chain: B32 chain with T5F, H6T, E9D, H13Q, D16N, A30N, L33M, D34S

- ELISA_avg: 27.9
B35: D domain SEQ ID NO: 973 (designed binder)
chain: B32 chain with T5E, H6I, E9D, H13S, D16K, R17V, A30L, L33S, F40L

- ELISA_avg: 32.3
B36: D domain SEQ ID NO: 967 (designed binder)
chain: B32 chain with T5Y, H6T, E9G, D10S, H13E, D16N, A30M, L33S, Y44F

- ELISA_avg: 16.6
B37: D domain SEQ ID NO: 972 (designed binder)
chain: B32 chain with T5S, H6I, E9Q, H13D, R17S, A30M, L33M, F40H, M41T

- ELISA_avg: 30.3
B38: D domain SEQ ID NO: 975 (designed binder)
chain: B32 chain with T5S, H6V, E9D, H13Q, A30Q, F40Y, M41V, Y44F

- ELISA_avg: 14.2
B39: D domain SEQ ID NO: 964 (designed binder)
chain: B32 chain with T5F, H6V, H13G, D16F, R17I, A30M, L33T, F40Y

- ELISA_avg: 24.1
B40: D domain SEQ ID NO: 976 (designed binder)
chain: MGSWAVFKDSLAHIKDVLEALGGSEAELALFEMDIAWFEYVLQDYKGKGNPEVEALRKEAAAIRDELQAYRHN

- ELISA_avg: 22.1
B41: D domain SEQ ID NO: 958 (designed binder)
chain: MGSWVYFKDHLAEIKSQLEALGGSEAELALFEYDIAWFEFILQYYKGKGNPEVEALRKEAAAIRDELQAYRHN

- ELISA_avg: 18.6
B42: D domain SEQ ID NO: 963 (designed binder)
chain: B32 chain with T5L, H6A, D16S, R17I, A30E, L33H, F40Y

- ELISA_avg: 25.6
B43: D domain SEQ ID NO: 974 (designed binder)
chain: B32 chain with T5S, H6I, E9D, H13V, D16E, A30H, L33Q, F40H, M41L

- ELISA_avg: 17.4
B44: D domain SEQ ID NO: 962 (designed binder)
chain: B18 chain with M5Q, V6I, E13A, A16D, N17Y, D30I, A34D, Y40H, E41M

- ELISA_avg: 18.9
B45: D domain SEQ ID NO: 961 (designed binder)
chain: B18 chain with V6H, A16G, N17Y, D30I, F33M, A34D, E41M, W44Y

- ELISA_avg: 11.1
B46: D domain SEQ ID NO: 959 (designed binder)
chain: B41 chain with D9H, H10R, S16D, L30E, Y33T, F40W, I41M

- ELISA_avg: 31.5
B47: D domain SEQ ID NO: 966 (designed binder)
chain: B32 chain with T5Y, H6Y, D10R, H13A, A30I, L33A

- ELISA_avg: 30.4
B48: D domain SEQ ID NO: 970 (designed binder)
chain: MGSWVEFKRDLANIKQRLEALGGSEAELAQFEMQIAWFEHTLQYYKGKGNPEVEALRKEAAAIRDELQAYRHN

- ELISA_avg: 11.6
B49: D domain SEQ ID NO: 971 (designed binder)
chain: B48 chain with V5S, E6Y, R9E, Q16S, R17S, Q30W, M33S, Q34S

- ELISA_avg: 29.7
B50: D domain SEQ ID NO: 969 (designed binder)
chain: B48 chain with E6L, R9Q, N13M, Q30M, M33Y, Q34D, T41M
